Source: the DeepSol protein solubility set

Assay: soluble on expression in E. coli; label from the status in PepcDB or PDB records

Question: With “MGSDKIHHHHHHMETIKAIHTRHSVRAFKDDPIEPQLLTMIVTDAQQTPSWGNSQPWQVYIATGHALTNIKQHYATAAEQGIAEDADLAKVHRGDFSAFASQNMGHWVGTFRPVIDSDPTTYWDSRANLYRAPAIAYLVLDANPNSWSIYDLGAFSQTLMLAATARGVQSVPSYELVKYPAIVRNALGMPANKVVAMGIALGYEKPEKPLNQFRTDRVATPQVLHIIN” as the sequence, how does the “soluble on expression in E. coli” value read?
Answer: The value was “not soluble”.

Question: Which “soluble on expression in E. coli” value does the source give for “MKEEKLVTLAIHSYEKAQILKSLLETEGIEAYLHNVNQIQPVISAGVRVRIKETDLPRALSIIEDNKWDQEDPKKRAKNTEEYVLIPVDFSEYTMKICELGFNFAARRGLRVVLMHVYISPFFSTPLTVGDTAVFQLSNEVSLRKEYQRVQR” here?
Answer: The value was “not soluble”.

Question: For “MISRTFLLLFFVFSISKCEVQLGCTSPPLPDANGLCPDGYTLITAGGCCPDSDVYIISATTTTTTTTQAPTTTASSGSCQDKVNPKTGVSDCPGMKAYCNNPAYVSVMKDQCPKTCGYCSSSATTAGTCQDKINPSTGRSDCPGMAAYCNNPVYHDVMKDQCPKTCGYC”, which “soluble on expression in E. coli” value is on record?
Answer: Its value is “not soluble”.

Question: With “MLQYPELPLESPLIDAELPDPRGGRYRLSQFHEPLLAVVFMCNHCPYVKGSIGELVALAERYRGKVAFVGINANDYEKYPEDAPEKMAAFAEEHGIFFPYLLDETQEVAKAYRALRTPEVFLFDERRLLRYHGRVNDNPKDPSKVQSHDLEAAIEALLRGEEPPLKEAPAIGCTIKWRPGNEPEVRIG” as the sequence, how does the “soluble on expression in E. coli” value read?
Answer: The value was “soluble”.

Question: For “GPGSMACARDHLRQTRTHQRHASTRDGQRMRAVSLAADPACTHPPTHTHTHIYTPIYVCRGFVCVTPQWRTELFNVVLLWRRAHTSLLSAACLCPYAQASPSCLHASFLSRLPRLSLSLSPCSCLHPHSTGVFAYIVFLRCRAATQNTSPVSSCVVRLVTRDLCAQSPTPPLPALCGHRNLVSLHRRKTPRLKRRVRTQATQRSDHRSSLIMPVFHAVMSVKESERVERIAPVKNRAWGLRFQCASCNEESTGMMYVNQTEQHERDGGMHNFVSKCKLCKADITADVLPVPAGTGYYSAEEENPANVIAAFEVRGGRPVELEIDNQWMIVTAGGGLFEDVDLSQEWYDYDESSQATVSVAGVSVDFEKSKKK”, which “soluble on expression in E. coli” value is on record?
Answer: The value was “not soluble”.

Question: With “MTEPRSYTIEEIASLLKVSKLTVYDLVKKGKLPAFRVGRQMRITADDLRRFIAGQKGEASTVFSAVSRPTETAFRPIIISGQDMALDLLGVHLEKGGPYQSLRTYTSSLNGLIALYKGQCDIVSVHLFDGQTGEYNRPYVEKLLTGHAYIMVNLMRRPIGFYVPKGNPRGIHTWSDLGRSDVVIVNREKGAGARVLLDEQLRLHGLSPSAIRGYEREETSHLSVASAVAAGLADVGIGTEKVARMAGVEFIPLMNEQYDVVMLRTPENESLIASVLDVLRSDSFRAELEALGGYDVSQTGRIMAEYG” as the sequence, how does the “soluble on expression in E. coli” value read?
Answer: Its value is “not soluble”.

Question: With “MSLSNAVRITALHTRLARIPLPRPLKTSIHEIADVCCLLVSLETDAGVTGEGYGFCFNADRLGAIAQFTQSLAPLVVGRDPHDVEALWTDFLRGCNFYGQSGVSILAYNPIDIACWDIVGKLAGRPLYKLFGAHRERVPVYASAGLWLSSSRDELRDEARQFLAQGFKAMKMRLGSPDWKEDIARVEVVRDAIGEQVTLMADANQGLDLTRALRLGRELARFDLAWFEEPVPTWDDDSAAEIVRRLPMPIASGETEYTRYGIRRMARERAAGVFMPDLQRMGGYTEMLKAVRYLAAHDLPVAPHIFTEHSLHIVAAAGNATWAEHMPWFEPLFHERMEIGADGCIAAPDRPGTGFTFDWQRIDPYLISPRTAGGSEGHHHHHH” as the sequence, how does the “soluble on expression in E. coli” value read?
Answer: Its value is “soluble”.

Question: For “MEDKPTILIMGGSLGLGNIEDIVEMVCHICDESYQIIVVTGKNKTLKKSLEERNFGRKVVVFGFISFIDKLMAISDILITKPGGLTCAEALSCKLPMILISPIPGQEERNTFYLINNGAAAYVKNIESFDIVFNQIINNPQRLEHMKLACSFLAKPLEHHHHHH”, which “soluble on expression in E. coli” value is on record?
Answer: Its value is “not soluble”.

Question: For “MTDKQAIREQMWQEMTEKKVGRFPFPLKGRIPNFKGAEQATRHLIQLEAYKQAKVVKVNPDSPQLPLRAQVLMDGKTLLVPTPRLKDGFILVKPEWVPEGEERKAVSLRNILSYGKVISLTEMPEIDLIVMGSVAVDRSGRRIGKGEGYADREYAIIRELGNRPVPVVTTVHQVQLVDVELPRDAYDVTVDWIATTEGLMQSVGAIEKPTGIVWSEVTEEELEAMPVLREIRELTKRQLEHHHHHH”, which “soluble on expression in E. coli” value is on record?
Answer: The value was “soluble”.

Question: With “MSGRKFSFEVTKTSSAPAATLFRLVTDGGNWATWAKPIVAQSSWARRGDPAPGGIGAIRKLGMWPVFVQEETVEYEQDRRHVYKLVGARTPVQDYFGEVVLTPNASGGTDLRWSGSFTEKVRGTGPVMRAALGGAVRFFAGQLVKAAEREAVRR” as the sequence, how does the “soluble on expression in E. coli” value read?
Answer: The value was “soluble”.

Question: For “STQTSRVTLVGEMLPAYNEILTPEALSFLKELHENFNERRIELLQKRMKKQQKIDAGEFPKFLEETKRIREADWTIAKLPKDLEDRRVEITGPVDRKMVINALNSGAHLFMADFEDSNSPTWENAIEGQINLRDAVKGTISHKNENGKEYRLNSKTAVLIVRPRGWHLEEKHMQVDGKNMSGSLVDFGLYFFHNAKALLEKGSGPYFYLPKMESYLEARLWNDVFVFAQKYIGIPNGTIKATVLLETIHASFEMDEILYELKDHSAGLNCGRWDYIFSFLKAFRNHNEFLLPDRAQVTMTAPFMRAYSLKVIQTCHRRNAPAIGGMAAQIPIKNNPEANEAAFEKVRADKEREALDGHDGTWVAHPGLVPVAMEVFNHIMKTPNQIFRKREEIHVTEKDLLEVPVGTITEEGLRMNISVGIQYIASWLSGRGAAPIYNLMEDAATAEISRAQVWQWIRHEGGKLNDGRNITLELMEELKEEELAKIEREIGKEAFKKGRFQEATTLFTNLVRNDEFVPFLTLPGYEIL”, which “soluble on expression in E. coli” value is on record?
Answer: Its value is “soluble”.

Question: With “KAVIDIDAATKIMCSNAKAISLNEVEKNEIISKYREITAKKSERAELKEVEPIPLDWPSDLTLPPLPESTNDYVWAGKRKELDDYPRKQLIIDGLSIVIPTYNRAKILAITLACLCNQKTIYDYEVIVADDGSKENIEEIVREFESLLNIKYVRQKDYGYQLCAVRNLGLRAAKYNYVAILDCDMAPNPLWVQSYMELLAVDDNVALIGPRKYIDTSKHTYLDFLSQKSLINEIPEIITNNQVAGKVEQNKSVDWRIEHFKNTDNLRLCNTPFRFFSGGNVAFAKKWLFRAGWFDEEFTHWGGEDNEFGYRLYREGCYFRSVEGAMAYHQEPPGKENETDRAAGKNITVQLLQQKVPYFYRKKEKIESATLKRVPLVSIYIPAYNCSKYIVRCVESALNQTITDLEVCICDDGSTDDTLRILQEHYANHPRVRFISQKNKGIGSASNTAVRLCRGFYIGQLDSDDFLEPDAVELCLDEFRKDLSLACVYTTNRNIDREGNLISNGYNWPIYSREKLTSAMICHHFRMFTARAWNLTEGFNESISNAVDYDMYLKLSEVGPFKHINKICYNRVLHGENTSIKKLDIQKENHFKVVNESLSRLGIKKYKYSPLTNLNECRKYTWEKI” as the sequence, how does the “soluble on expression in E. coli” value read?
Answer: The value was “soluble”.

Question: For “GSHMHRVINHPYYFPFNGKQAEDYLRSKERGDFVIRQSSRGDDHLAITWKLDKDLFQHVDIQEMEKENPLAMGKVLVVEGQRYHDLDQIIVEYLQNKIRLLNE”, which “soluble on expression in E. coli” value is on record?
Answer: The value was “soluble”.

Question: With “MAHHHHHHMNVRKGILNYLTLHSTIVRRNHHRSYHKECRQQGSPHGMEKNSKMKNVRPNYFVCIPLSGNKALVEEFLKVQNHVASKFEMLKECAIERNKFHISLLILHVKKSQMESSKEAFHEAMAEIKKLNHQAISFDTLETFRNDVLYAGLQEGSRKYVMNVIALLRDSFAKRDIHIFGNRKGREEARGKKRASGASDKSAANPIDKSAANPSDKSAAPPGTHERDDKEQITPHVTIMKNSYLRKIYANRKPQIFADYYADFNLSKLKNERVVPNKIQFLEMDTDSATSYYRIIAECGLP” as the sequence, how does the “soluble on expression in E. coli” value read?
Answer: The value was “not soluble”.

Question: Which “soluble on expression in E. coli” value does the source give for “MESSKKMDSPGALQTNPPLKLHTDRSAGTPVFVPEQGGYKEKFVKTVEDKYKCEKCHLVLCSPKQTECGHRFCESCMAALLSSSSPKCTACQESIVKDKVFKDNCCKREILALQIYCRNESRGCAEQLTLGHLLVHLKNDCHFEELPCVRPDCKEKVLRKDLRDHVEKACKYREATCSHCKSQVPMIALQVSLLQNESVEKNKSIQSLHNQICSFEIEIERQKEMLRNNESKILHLQRVIDSQAEKLKELDKEIRPFRQNWEEADSMKSSVESLQNRVTELESVDKSAGQVARNTGLLESQLSRHDQMLSVHDIRLADMDLRFQVLETASYNGVLIWKIRDYNRRKQEAVMGKTLSLYSQPFYTGYFGYKMCARVYLNGDGMGKGTHLSLFFVIMRGEYDALLPWPFKQKVTLMLMDQGSSRRHLGDAFKPDPNSSSFKKPTGEMNIASGCPVFVAQTVLENGTYIKDDTIFIKVIVDTSDLPDP” here?
Answer: Its value is “soluble”.
